{
  "source": "patent US7230094B2",
  "about": "“Neutral sphingomyelinase antisense ribozyme and uses thereof” (priority 2001, dated 2007)",
  "test_system": "N-SMase",
  "test": "Western immunoblot and densitometric analysis of N-SMase",
  "assay_type": "cell-based, human",
  "settings": "mutant CC cells vs WT, FIG. 3",
  "protocol": "(§1) FIG. 3 depicts a western immunoblot assay and densitometric analysis of N-SMase. About 10 μg of partially purified N-SMase preparations from WT (MG-63) and mutant (CC) cells were solubilized and subjected to 7.5% polyacrylamide SDS gel electrophoresis. The proteins were then transferred to PVDF membranes and subjected to a western immunoblot assay employing an N-SMase antibody or β-actin antibody (control). The immunoreactive protein bands were then subjected to densitometric scanning.\nas §1, with “Western” for “FIG. 3 depicts a western”, “analysis was used to quantify the level” for “analysis”, “N-SMase in WT and CC cells.” for “N-SMase.”, “antibody.” for “antibody or β-actin antibody (control).”",
  "data": [
    {"molecule": "N-SMase ribozyme: U1 snRNA-derived hammerhead antisense ribozyme targeting N-SMase mRNA, expressed from vector pNSMRz; stably transfected MG63 clones CC and C-B (nucleic acid, listed as Homo sapiens) AUACUUACCUGGCAGGGGAGAUACCAUGAUCACGAAGGUGGUUUUCCCAGGGCGAGGCUUAUCCAUUGGCCUCCGGAUGUGCUGACCCCUGCGAUUUCCCCAAAUGUGGGAAACUCGACUGCAGAAUAUGUCAUCAUAUUGCCUGAUGAGUCCGUGAGGACGAAACCUCUUCACAUGAAAAAGUGGGGCUGCGUUCGCGCUUCCCCG", "values": [
      {"measurement": "Level of N-SMase by western immunoblot densitometry", "result": "greatly reduced"}
    ]}
  ]
}
